This passage reports amount of 32P incorporated into MBP, in vitro kinase assay on anti-HA immunoprecipitates (times higher compared to controls) and GLI activity, luciferase reporter p9XGliLuc in C3H10T1/2 cells results from patent US6022708.

Assay [1] concerns the target Myelin Basic Protein (Sigma).
The target of assay [2] is transcription factor GLI, the mammalian homologue of the Drosophila cubitus interruptus (Ci).

In assay [1], “fused KD (kinase domain of human fused alone), HA epitope tagged (enzyme)” showed an amount of 32P incorporated into MBP, in vitro kinase assay on anti-HA immunoprecipitates (times higher compared to controls) of 3.

With “human fused (wild type, full length), HA epitope tagged”, the GLI activity, luciferase reporter p9XGliLuc in C3H10T1/2 cells in assay [2] is 9.5 fold.

For the substance “human fused (wild type, full length), HA epitope tagged (enzyme)”, the amount of 32P incorporated into MBP, in vitro kinase assay on anti-HA immunoprecipitates (times higher compared to controls) in assay [1] is 2.
